# PMC9684356
# T1: HLTF HIRAN domain (UniProt Q14527 51-171)
# T1 sequence: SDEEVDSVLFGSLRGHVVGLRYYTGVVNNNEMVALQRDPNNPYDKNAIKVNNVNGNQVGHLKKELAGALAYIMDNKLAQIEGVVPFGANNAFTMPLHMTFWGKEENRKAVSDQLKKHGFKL
# B1: 5'-FAM-GTG (ssDNA)
# DNA: GTG
# B2: 5'-FAM-TTG (ssDNA)
# DNA: TTG
# B3: 5'-FAM-TCC (ssDNA)
# DNA: TCC
# B4: 5'-FAM-GTTG (ssDNA)
# DNA: GTTG
# B5: 5'-FAM-TTTG (ssDNA)
# DNA: TTTG
# B6: 5'-FAM-TATAT (ssDNA)
# DNA: TATAT
# B7: 5'-FAM-CTG (ssDNA)
# DNA: CTG
# B8: 5'-FAM-ATG (ssDNA)
# DNA: ATG
# B9: 5'-FAM-ATATA (ssDNA)
# DNA: ATATA
# B10: 5'-FAM-A5 (ssDNA)
# DNA: AAAAA
# B11: 5'-FAM-T5 (ssDNA)
# DNA: TTTTT
# B12: GGT (ssDNA)
# DNA: GGT
# B13: CAG (ssDNA)
# DNA: CAG
# B14: TGT (ssDNA)
# DNA: TGT
# B15: TTT (ssDNA)
# DNA: TTT
# B16: GCC (ssDNA)
# DNA: GCC
# B17: CTT (ssDNA)
# DNA: CTT
# B18: TCC (ssDNA)
# DNA: TCC
# B19: TTTG (ssDNA)
# DNA: TTTG
# B20: CTTG (ssDNA)
# DNA: CTTG
# B21: CTG (ssDNA)
# DNA: CTG
# B22: GGG (ssDNA)
# DNA: GGG
# B23: T5 (ssDNA)
# DNA: TTTTT
# B24: CCG (ssDNA)
# DNA: CCG
# B25: TTA (ssDNA)
# DNA: TTA
# B26: ATTG (ssDNA)
# DNA: ATTG
# B27: GTG (ssDNA)
# DNA: GTG
# B28: ATG (ssDNA)
# DNA: ATG
# B29: CCT (ssDNA)
# DNA: CCT
# B30: TTG (ssDNA)
# DNA: TTG
# B31: TCT (ssDNA)
# DNA: TCT
# B32: GTTG (ssDNA)
# DNA: GTTG
# B33: TCG (ssDNA)
# DNA: TCG
# B34: TTC (ssDNA)
# DNA: TTC
# B35: TAT (ssDNA)
# DNA: TAT
# Target: T1, HLTF HIRAN domain
# Assay: fluorescence polarization
row,Binder,Kd [nM]
1,B1,180 ± 10
2,B2,30 ± 10
3,B3,210 ± 70
4,B4,220 ± 90
5,B5,100 ± 20
6,B6,250 ± 100
7,B7,60 ± 10
8,B8,90 ± 10
9,B9,170 ± 60
10,B10,160 ± 40

# Target: T1, HLTF HIRAN domain
# Assay: fluorescence polarization
# Remark: another data set of the same source
row,Binder,Kd [nM]
1,B11,140 ± 30

# Target: T1, HLTF HIRAN domain
# Assay: competition
row,Binder,IC50 [nM]
1,B12,5400 ± 200
2,B13,31700 ± 3900
3,B14,15500 ± 900
4,B15,4300 ± 900
5,B16,31800 ± 8500
6,B17,10000 ± 1500
7,B18,17100 ± 4800
8,B19,2000 ± 200
9,B20,1600 ± 200
10,B21,2500 ± 200
11,B22,20200 ± 5100
12,B23,2400 ± 600
13,B24,3600 ± 200
14,B25,4300 ± 400
15,B26,1800 ± 200
16,B27,2200 ± 70
17,B28,2900 ± 400
18,B29,6900 ± 70
19,B30,2800 ± 500
20,B31,6800 ± 700
21,B32,1700 ± 100
22,B33,2900 ± 300
23,B34,13500 ± 600
24,B35,34900 ± 9200
